Measured values taken from US20210340206A1 (SYLUS, published 2021).
Read-outs that look alike come from different tables or passages of the source.

What was measured:
[1] = target: T1, Soluble mouse EPOR chimera protein (R&D Systems) (mouse, UniProt P14753 25-249); test: SPR, mouse EPOR chimera amine-coupled to chip, peptide as analyte
T1 construct: extracellular domain; Bought from R&D Systems; Amine-coupled to the SPR chip; also called erythropoietin receptor
T1 sequence (looked up): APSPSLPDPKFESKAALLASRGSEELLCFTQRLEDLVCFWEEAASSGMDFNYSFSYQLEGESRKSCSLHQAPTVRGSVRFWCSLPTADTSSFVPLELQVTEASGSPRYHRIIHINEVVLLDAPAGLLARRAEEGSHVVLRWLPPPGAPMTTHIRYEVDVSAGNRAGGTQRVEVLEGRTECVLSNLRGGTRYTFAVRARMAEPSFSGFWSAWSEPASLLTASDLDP
Procedure: The SPR technique is to measure interactions between biomolecules in real-time by using an optical principle without specific labeling, and is a system analyzing affinity between two molecules and kinetics, i.e., an association rate (Ka) and a dissociation rate (Kd).
In detail, real-time SPR analysis was performed using Reichert SPR Biosensor SR 7500C instrument (Reichert Inc., NY, USA). Soluble mouse EPOR chimera proteins (R&D Systems, Minneapolis, Minn., USA) were covalently linked to a carboxymethylated dextran matrix-coated chip (BR-1005-39, Pharmacia Biosensor AB) by an amine coupling procedure using an amine coupling kit (BR-1000-50, GE Healthcare, USA) in accordance with manufacturer's instructions. […] For signal normalization, DMSO was applied at a flow rate of 5 μl/minute, and after each binding cycle, the sensor chip was regenerated by injecting 25 mM acetic acid at a flow rate of 20 μl/minute.

[2] = target: T1, Soluble mouse EPOR chimera protein (R&D …); test: as above; remark: listed apart in the source

B1: ML6-1 (peptide)
peptide: KGLRSLISLLRALGAQKEAI
notes: Synthetic monomer
Kd [1]: 158 µM

B2: ML1-H3 (peptide)
peptide: LQLHVLKAVAGLRTLAMIRRALA
Kd [2]: 1.15 µM

B3: ML5-1 (peptide)
peptide: AGLRSRAHLRRALA
notes: Synthetic monomer
Kd [1]: 78.3 µM

B4: ML4 (peptide)
peptide: DKAVSGLRSLTTLLRALGAQKEAI
notes: Synthetic monomer
Kd [1]: 10 µM

B5: ML1-1 (peptide)
peptide: LQLHVLKRVSGLLSHTMLLKALG
notes: Synthetic monomer
Kd [1]: 1.06 µM

B6: ML3 (peptide)
peptide: TKVNFYAWKR
notes: Synthetic monomer
Kd [1]: 14.6 µM

B7: ML1-C3 (peptide)
peptide: LQRHVKKRVKGLKSLTTLLRALG
notes: Charge-modified variant of ML1
Kd [2]: 9.83 µM

B8: ML7-1 (peptide)
peptide: DEALDLEVDKAATGLRTLTTLIRAL
notes: Synthetic monomer
Kd [1]: 63.7 µM

B9: ML1-H1 (peptide)
peptide: LQLHVLKAVSGLLTHTTLLKALG
Kd [2]: 7.85 µM

B10: ML8 (peptide)
peptide: DKAVSGLRSLTTLLRAL
notes: Synthetic monomer
Kd [1]: 444 µM

B11: ML2 (peptide)
peptide: LHVDKAVSGLRSLTTLLRAL
notes: Synthetic monomer
Kd [1]: 273 µM

B12: ML5 (peptide)
peptide: SGLRSLTTLLRALG
notes: Synthetic monomer
Kd [1]: 0.329 µM

B13: ML6 (peptide)
peptide: SGLRSLTTLLRALGAQKEAI
notes: Synthetic monomer
Kd [1]: 900 µM

B14: ML2-1 (peptide)
peptide: RHVQKAESGLRSLTKLLREL
notes: Synthetic monomer
Kd [1]: 14.3 µM

B15: ML1-H2 (peptide)
peptide: LQLHVLKAVSGLLTLTMIRRALG
Kd [2]: 0.307 µM

B16: ML3-1 (peptide)
peptide: TRVNYQAWKR
notes: Synthetic monomer
Kd [1]: 4.31 µM

B17: ML8-1 (peptide)
peptide: NKAVAGLRSLTVN
notes: Synthetic monomer
Kd [1]: 2370 µM

B18: ML4-1 (peptide)
peptide: KKAVSGLKTLTHILRALGAQKEAI
notes: Synthetic monomer
Kd [1]: ~39.3 µM

B19: ML1 (peptide)
peptide: LQLHVDKAVSGLRSLTTLLRALG
notes: Synthetic monomer made by solid phase peptide synthesis; also called erythropoietin-derived peptide ML1
Kd [1]: 6.46 µM
Kd [2]: 6.46 µM

B20: ML1-C1 (peptide)
peptide: LDLEVDKAVSGLRSLTTLLRALG
notes: as for B7
Kd [2]: 150 µM

B21: ML1-C2 (peptide)
peptide: LQRHVDKRVSGLRSLTTLLRALG
notes: as for B7
Kd [2]: 11.8 µM
